Literature values as cited in paper PMC5418926.

Biological target: Lys53 (UniProt position 53, YGGQTKPIFRK)
Test: chemical modification (inferred: crosslinking with periodate-oxidised tRNA); not described in this article

Substance | pKa (recombinant eL42 off the ribosome) | pKa (endogenous eL42 in situ in the human 80S ribosome, crosslinked with tRNAox)
60S ribosomal protein eL42 (formerly L36a / RPL36A), recombinant (Homo sapiens) | 6.9 + 0.1 | 
60S ribosomal protein eL42 (L36a-like / RPL36AL), endogenous, in the human 80S ribosome (Homo sapiens) |  | 6.9 ± 0.1
